Laboratory results reported in the supplement of paper PMC9732359.
± gives the uncertainty stated by the source.

Assay: protein stability index of a GFP-peptide fusion (yeast GPS) (PSI 1-4); higher = more stable; sorted into four equal gates, so the index is relative within each strain
Outline: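 Peptides tiling yeast proteins in 17-residue segments were fused downstream of GFP, with Cherry expressed from the same plasmid. As a pooled library in yeast, mid-log cultures grown in leucine-free medium were sorted into four equal gates by GFP/Cherry fluorescence ratio. Gate plasmids were PCR-amplified and Illumina-sequenced, and barcodes linked reads to strains. Each peptide received a protein stability index equal to the sum of each gate's read frequency times its gate number.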

| Sequence | protein stability index (doa10∆) | protein stability index (pdr5∆) | protein stability index (san1∆) | protein stability index (ubr1∆) |
| --- | --- | --- | --- | --- |
| GLPTDAYVAIEQVKDDG [RPN8] | 2.61 ± 0.076 | 1.92 ± 0.1 | 2.59 ± 0.23 | 2.34 ± 0.08 |
| TELASKDNAIYNGFIDI [YCS4] | 1.42 ± 0.072 | 1.68 ± 0.071 | 1.09 ± 0.14 | 1.48 ± 0.05 |
| SSFYINHASMDVYNREL [BRR2] | 3.02 ± 0.12 | 2.96 ± 0.1 | 3.04 ± 0.076 | 3.17 ± 0.09 |
| NSSMRYGYWFDCRMGNF [AAR2] |  |  | 1.83 ± 0.12 |  |
| TDIKDTLTKISMLFKTS [MCD1] | 2.87 ± 0.15 | 2.88 ± 0.27 | 2.37 ± 0.18 |  |
| IRLAKTLKKNNVAVDII [RPN10] | 2.73 ± 0.085 | 2.85 ± 0.095 | 2.92 ± 0.12 | 2.56 ± 0.075 |
| NPSNTPDKDYLLSIPIS [FAS1] | 2.89 ± 0.078 | 3.1 ± 0.079 | 2.88 ± 0.054 | 2.82 ± 0.066 |
| ALRPSDIFGANAASGSN [YOR098C/NUP1] | 2.67 ± 0.057 | 1.99 ± 0.044 | 2.22 ± 0.062 | 2.52 ± 0.059 |
| NRSAYDSKNTPNVFDKD [YDL088C/ASM4] | 2.41 ± 0.1 | 2.72 ± 0.075 | 2.9 ± 0.074 | 2.92 ± 0.091 |
| ETEQEYSPSNEISISFD [YDL116W/NUP84] | 2.65 ± 0.058 | 2.89 ± 0.067 | 2.52 ± 0.059 | 2.98 ± 0.048 |
| DTSRPDLEWQELTSFSS [DSN1] | 3.18 ± 0.053 | 3.05 ± 0.053 | 3.08 ± 0.055 | 2.85 ± 0.042 |
| FNSVQKKSRSNLSQEND [YAR002W/NUP60] | 2.81 ± 0.09 | 2.85 ± 0.071 | 2.49 ± 0.1 | 3.12 ± 0.12 |
| NKSLKYVIHGIELLSDL [LIN1] | 2.81 ± 0.093 | 2.94 ± 0.096 | 2.92 ± 0.075 | 2.87 ± 0.067 |
| YWFPLAHFLSLSFTPTT [RPN2] | 1.65 ± 0.036 | 1.34 ± 0.033 | 1.19 ± 0.076 | 1.19 ± 0.028 |
| VNEENDSYIALYEKDIV [RET1] | 2.6 ± 0.064 | 2.56 ± 0.076 | 2.69 ± 0.061 | 2.68 ± 0.07 |
| RQLSPHTLMSFAGEAGD [PRE1] | 1.69 ± 0.052 | 1.87 ± 0.057 | 1.83 ± 0.12 | 1.96 ± 0.041 |
| GNITRGLAVGLALINYG [RPN2] | 1.43 ± 0.17 | 1.22 ± 0.11 | 1.7 ± 0.15 | 1.51 ± 0.086 |
| IDDKGVLMERKDERGEG [ITC1] | 3 ± 0.21 | 3.5 ± 0.18 | 3 ± 0.15 | 3.02 ± 0.21 |
| EKPLVVPVKLEEIKTVD [RRP6] | 2.52 ± 0.13 | 2.42 ± 0.07 | 2.76 ± 0.16 | 2.38 ± 0.068 |
| WWTNSHHDGKLWNLNAY [PRP8] | 2.9 ± 0.21 | 2.76 ± 0.14 | 2.98 ± 0.082 | 2.45 ± 0.14 |
| ELQKIYDRHQSSSKQQS [SMC4] | 3.33 ± 0.084 | 3.33 ± 0.095 | 3.35 ± 0.08 | 3.57 ± 0.051 |
| LYGVTICYNKKTEYVLN [REC8] | 1.3 ± 0.058 | 1.3 ± 0.14 | 1.14 ± 0.13 | 1.34 ± 0.062 |
| GFIETTELLNIYDSEDP [RPN3] | 2.71 ± 0.091 | 3.01 ± 0.095 | 2.85 ± 0.084 | 3.06 ± 0.075 |
| MPFNDQGIVPDIIMNPH [RET1] | 2.71 ± 0.075 | 2.92 ± 0.059 | 2.87 ± 0.052 | 3.09 ± 0.042 |
| ENTPEPDLPALEASYSK [SMC4] | 2.36 ± 0.12 | 2.61 ± 0.091 | 3.18 ± 0.068 | 2.99 ± 0.12 |
| TENEIPNLIEKMVAKGL [BRR2] | 2.85 ± 0.17 | 2.81 ± 0.13 | 2.63 ± 0.093 | 2.78 ± 0.11 |
| KDERGEGEAKQKRNAHG [ITC1] | 3.21 ± 0.18 | 3.69 ± 0.23 | 3.46 ± 0.098 | 3.34 ± 0.14 |

| Sequence | protein stability index (doa10∆) | protein stability index (pdr5∆) | protein stability index (san1∆) | protein stability index (ubr1∆) |
| --- | --- | --- | --- | --- |
| EHVILGNGELYMDCLLY [SNU114] | 2.31 ± 0.053 | 2.73 ± 0.073 | 2.76 ± 0.086 | 2.67 ± 0.063 |
| SATLPNYEDVGRFLRVP [BRR2] | 2.8 ± 0.087 | 3.1 ± 0.062 | 3.04 ± 0.048 | 3.01 ± 0.075 |
| NEVSLAIKKSSMKMELL [SMC2] | 2.69 ± 0.071 | 2.49 ± 0.082 | 3.34 ± 0.12 | 2.21 ± 0.075 |
| MSGGGNHVAKGLMKLGT [SMC4] |  | 3.56 ± 0.3 |  |  |
| ATANATANATAELNLPT [SNF11] | 3.096 ± 0.028 | 3.265 ± 0.029 | 3.212 ± 0.032 | 3.282 ± 0.02 |
| SAQSIASAKSVRSGVSK [YAR002W/NUP60] | 2.88 ± 0.072 | 2.93 ± 0.092 | 3 ± 0.069 | 2.96 ± 0.057 |
| IDGPKAGVPRQAINLGQ [RPL14A] | 3.58 ± 0.14 | 3.29 ± 0.11 | 2.69 ± 0.11 | 3.31 ± 0.1 |
| EVHDLIGFITSGTYHLN [POP1] | 2.69 ± 0.15 | 2.64 ± 0.14 | 2.11 ± 0.13 | 2.48 ± 0.11 |
| ALMKEKDIRSTLASLIR [RPC82] | 3.2 ± 0.27 | 2.85 ± 0.21 | 2.43 ± 0.24 | 3.13 ± 0.12 |
| EPKLFRMRIFASNEVIA [RPL20A] | 2.19 ± 0.087 | 1.97 ± 0.054 | 1.82 ± 0.06 | 2.28 ± 0.036 |
| NFLRLPASNILRRTTQR [YDL116W/NUP84] | 3.08 ± 0.27 |  | 3.25 ± 0.13 |  |
| SIVNICDIQEEQVDITA [PUP1] | 2.83 ± 0.15 | 2.91 ± 0.16 | 3.31 ± 0.12 | 2.74 ± 0.11 |
| PAPSIPSTGFKFSLPFE [YLR335W/NUP2] | 2.53 ± 0.1 | 2.94 ± 0.072 | 2.92 ± 0.088 | 3.05 ± 0.086 |
| LSEDKKKLDYVLALKVE [RPS9A] | 1.31 ± 0.17 | 2.22 ± 0.23 | 1.41 ± 0.16 | 1.49 ± 0.29 |
| LLEQKKSIINSQRPGAR [ITC1] |  | 2.67 ± 0.2 | 2.47 ± 0.23 | 2.62 ± 0.11 |
| SDAVMAEHSQNKIDQSL [YJL041W/NSP1] | 3.08 ± 0.064 | 3.18 ± 0.044 | 3.08 ± 0.052 | 3.07 ± 0.056 |
| SLKTKLNSNIRAGVTIP [SNF5] | 2.6 ± 0.077 | 2.72 ± 0.051 | 2.36 ± 0.066 | 2.63 ± 0.047 |
| KDLENAQVEMKSLEEQE [SMC1] | 3.43 ± 0.14 | 3.12 ± 0.1 | 3.37 ± 0.085 | 3.3 ± 0.081 |
| SGIVASPAVKKLLQLAG [RPS2] | 1.56 ± 0.12 | 1.66 ± 0.14 |  |  |
| KYPLGHFVRDLGTIESA [DIS3] | 2.56 ± 0.097 | 2.43 ± 0.1 | 2.85 ± 0.15 | 2.58 ± 0.19 |
| KCKEVGITAVHVKIRAT [RPS14B] | 2.39 ± 0.063 | 1.64 ± 0.051 | 1.7 ± 0.1 | 2.19 ± 0.043 |
| LSRGYTCPGLSLTDVAF [ECM29] | 3.24 ± 0.12 | 3.19 ± 0.084 | 2.29 ± 0.11 | 2.68 ± 0.12 |
| AAASESDVAKQLASFGY [RPL16B] | 2.67 ± 0.032 | 2.62 ± 0.028 | 2.28 ± 0.037 | 2.356 ± 0.019 |
| MGYSGWCTTCKSAENII [RET1] | 3.21 ± 0.15 | 2.99 ± 0.14 | 3.22 ± 0.079 | 3.19 ± 0.094 |
| LQGVTYPVLRKLYKKIA [YIL149C/MLP2] | 1.94 ± 0.093 | 1.79 ± 0.056 | 1.55 ± 0.14 | 1.83 ± 0.055 |
| HVSHEAMREVNDEKRVK [YIL149C/MLP2] | 2.74 ± 0.097 | 2.89 ± 0.15 |  | 3.03 ± 0.12 |
| EEALNFDISMADLSSSE [SSN2] | 2.85 ± 0.06 | 2.95 ± 0.053 | 3.05 ± 0.07 | 2.6 ± 0.049 |
